Tests used:
[1] = molecular target: T1, HER2 extracellular domain full-length antigen (Rhinogen®) (human, UniProt P04626 23-652); experiment: SPR, Biacore T200; IgG captured by anti-human Fc on CM5 chip, HER2 ECD flowed over;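 also: IgG loaded at 2 µg/ml for capture, HER2 ECD injected at three concentrations, kinetic constants derived by curve fitting in the Biacore T200 software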
T1 construct: extracellular domain; also called full-length HER2 antigen (Rhinogen®); HER2 ECD antigen (Rhinogen®)

[2] = molecular target: HER2 on HER2-positive tumor cells (human, UniProt P04626 23-1255); experiment: cell-based or functional assay
[3] = molecular target: T2, Trastuzumab-specific HER2 antigen (Rhinogen®); experiment: ELISA; antigen coated at 2 µg/ml, HRP anti-human light chain detection
T2 construct: also called Trastuzumab-specific antigen (Rhinogen®)

[4] = molecular target: T3, Pertuzumab-specific HER2 antigen (Rhinogen®); experiment: as above
T3 construct: also called Pertuzumab-specific antigen (Rhinogen®)

[5] = molecular target: T2, Trastuzumab-specific HER2 antigen …; experiment: SPR, Biacore T200; IgG captured by anti-human Fc on CM5 chip, antigen flowed over
[6] = molecular target: T3, Pertuzumab-specific HER2 antigen …; experiment: as above
[7] = molecular target: T1, HER2 extracellular domain full-length …; experiment: ELISA; antigen coated at 2 µg/ml, HRP anti-human light chain detection

Row | Binder | Kd [1] [nM] | koff [1] [s⁻¹] | kon [1] [M⁻¹ s⁻¹] | also measured
1 | Single-target anti-HER2 IgG: light chain N30S M2 + heavy chain No. 7 (Trastuzumab heavy chain, Table 5) (antibody, V domains shown, IgG) VH: not shown VL: DIQMTQSPSSLSASVGDRVTITCRASQDVSTAVAWYQQKPGKAPKLLIYSASYRYTGVPSRFSGSRSGTDFTLTISSLQPEDFATYYCQQHYTTPPTFGQGTKVEIKR | 0.914 | 9.87e-05 | 108000 | 
2 | KJ015-A (bispecific antibody) VH 1: EVQLVESGGGLVQPGGSLRLSCAASGFTFTDYTMDWVRQAPGKGLEWVADVNPNSGGSIYNQRFKGRFTLSVDRSKNTLYLQMNSLRAEDTAVYYCARNLGPWFYFDYWGQGTLVTVSS VH 2: not shown light: not shown |  |  |  | Maximum inhibition rate of cell proliferation (%), BT474 [2]: 83.1%; Maximum inhibition rate of cell proliferation (%), Calu-3 [2]: 81.2%; Maximum inhibition rate of cell proliferation (%), MDA-MB-175 [2]: 75.7%; Maximum inhibition rate of cell proliferation (%), NCI-N87 [2]: 79.6%; Maximum inhibition rate of cell proliferation (%), SK-BR-3 [2]: 56.4%
3 | Single-target anti-HER2 IgG: light chain M1 + heavy chain No. 6 (wild-type Pertuzumab heavy chain, Table 5) (antibody, V domains shown, IgG) VH: EVQLVESGGGLVQPGGSLRLSCAASGFTFTDYTMDWVRQAPGKGLEWVADVNPNSGGSIYNQRFKGRFTLSVDRSKNTLYLQMNSLRAEDTAVYYCARNLGPSFYFDYWGQGTLVTVSS VL: not shown | 50.1 | 0.00181 | 36200 | 
4 | KJ015w (bispecific antibody, IgG-like: Trastuzumab heavy chain with a knob structure, Pertuzumab heavy chain with a hole structure, common Trastuzumab light chain; also called wild-type KJ015w antibody; wild-type) VH 1: not shown VH 2: EVQLVESGGGLVQPGGSLRLSCAASGFTFTDYTMDWVRQAPGKGLEWVADVNPNSGGSIYNQRFKGRFTLSVDRSKNTLYLQMNSLRAEDTAVYYCARNLGPSFYFDYWGQGTLVTVSS light: not shown |  |  |  | EC50 [3]: 0.0535 mg/L; EC50 [4]: 0.352 mg/L; Kd [5]: 3.43 nM; koff [5]: 9.75e-05 s⁻¹; kon [5]: 28400 M⁻¹ s⁻¹; Kd [6]: 267 nM; koff [6]: 0.00309 s⁻¹; kon [6]: 11600 M⁻¹ s⁻¹
5 | Single-target anti-HER2 IgG: light chain M1 + heavy chain No. 5 (Table 5) (antibody, V domains shown, IgG; positions derived) VH: EVQLVESGGGLVQPGGSLRLSCAASGFTFTDYTMDWVRQAPGKGLEWVADVNPNSGGSIFNHRFKGRFTLSVDRSKNTLYLQMNSLRAEDTAVYYCARNLGPWFYFDYWGQGTLVTVSS VL: not shown | 2.02 | 0.000143 | 71000 | 
6 | Single-target anti-HER2 IgG: light chain N30S M1 + heavy chain No. 4 (Table 5) (antibody, V domains shown, IgG; Heavy chain positions derived) VH: EVQLVESGGGLVQPGGSLRLSCAASGFTFTDYTMDWVRQAPGKGLEWVADVNPNSGGSIFNQRFKGRFTLSVDRSKNTLYLQMNSLRAEDTAVYYCARNLGPWFYFDYWGQGTLVTVSS VL: not shown | 3.18 | 0.000202 | 63600 | 
7 | Single-target anti-HER2 IgG: light chain M2 + heavy chain No. 3 (Table 5) (antibody, V domains shown, IgG) VH: EVQLVESGGGLVQPGGSLRLSCAASGFTFTDYTMDWVRQAPGKGLEWVADVNPNSGGSILNVRFKGRFTLSVDRSKNTLYLQMNSLRAEDTAVYYCARNLGPWFYFDYWGQGTLVTVSS VL: DIQMTQSPSSLSASVGDRVTITCRASQDVNTAVAWYQQKPGKAPKLLIYSASYRYTGVPSRFSGSRSGTDFTLTISSLQPEDFATYYCQQHYTTPPTFGQGTKVEIKR | 2.57 | 0.000152 | 59300 | 
8 | Single-target anti-HER2 IgG: light chain M1 + heavy chain No. 2 (Table 5) (antibody, V domains shown, IgG) VH: EVQLVESGGGLVQPGGSLRLSCAASGFTFTDYTMDWVRQAPGKGLEWVADVNPNSGGSILNRRFKGRFTLSVDRSKNTLYLQMNSLRAEDTAVYYCARNLGPNFYFDYWGQGTLVTVSS VL: not shown | 4.97 | 0.000261 | 52500 | 
9 | Single-target anti-HER2 IgG: light chain N30S M1 + heavy chain No. 2 (Table 5) (antibody, V domains shown, IgG; Heavy chain positions derived) VH: EVQLVESGGGLVQPGGSLRLSCAASGFTFTDYTMDWVRQAPGKGLEWVADVNPNSGGSILNRRFKGRFTLSVDRSKNTLYLQMNSLRAEDTAVYYCARNLGPNFYFDYWGQGTLVTVSS VL: not shown | 5.04 | 0.000272 | 53900 | 
10 | KJ015m1 (bispecific antibody, As KJ015w but with the common light chain M1; also called light chain variant M1) VH 1: not shown VH 2: EVQLVESGGGLVQPGGSLRLSCAASGFTFTDYTMDWVRQAPGKGLEWVADVNPNSGGSIYNQRFKGRFTLSVDRSKNTLYLQMNSLRAEDTAVYYCARNLGPSFYFDYWGQGTLVTVSS light: not shown |  |  |  | EC50 [3]: 0.038 mg/L; EC50 [7]: 0.0255 mg/L; EC50 [4]: 0.257 mg/L
11 | Single-target anti-HER2 IgG: light chain M1 + heavy chain No. 9 (Table 5) (antibody, V domains shown, IgG; Heavy chain positions derived) VH: EVQLVESGGGLVQPGGSLRLSCAASGFTFTDYTMDWVRQAPGKGLEWVADVNPNSGGSIINQRFKGRFTLSVDRSKNTLYLQMNSLRAEDTAVYYCARNLGPFFYFDYWGQGTLVTVSS VL: not shown | 5.66 | 0.000386 | 68300 | 
12 | Single-target anti-HER2 IgG: light chain N30S M1 + heavy chain No. 5 (Table 5) (antibody, V domains shown, IgG; Heavy chain positions derived) VH: EVQLVESGGGLVQPGGSLRLSCAASGFTFTDYTMDWVRQAPGKGLEWVADVNPNSGGSIFNHRFKGRFTLSVDRSKNTLYLQMNSLRAEDTAVYYCARNLGPWFYFDYWGQGTLVTVSS VL: not shown | 2.09 | 0.000145 | 69600 | 
13 | Single-target anti-HER2 IgG: light chain M1 + heavy chain No. 11 (Table 5) (antibody, V domains shown, IgG; Heavy chain positions derived) VH: EVQLVESGGGLVQPGGSLRLSCAASGFTFTDYTMDWVRQAPGKGLEWVADVNPNSGGSITNQRFKGRFTLSVDRSKNTLYLQMNSLRAEDTAVYYCARNLGPFFYFDYWGQGTLVTVSS VL: not shown | 5.74 | 0.000393 | 68500 | 
14 | Single-target anti-HER2 IgG: light chain N30S M1 + heavy chain No. 1 (Table 5) (antibody, V domains shown, IgG; Heavy chain position derived) VH: EVQLVESGGGLVQPGGSLRLSCAASGFTFTDYTMDWVRQAPGKGLEWVADVNPNSGGSIYNQRFKGRFTLSVDRSKNTLYLQMNSLRAEDTAVYYCARNLGPWFYFDYWGQGTLVTVSS VL: not shown | 5.05 | 0.000284 | 56200 | 
15 | Single-target anti-HER2 IgG: light chain N30S M2 + heavy chain No. 3 (Table 5) (antibody, V domains shown, IgG; Heavy chain positions derived) VH: EVQLVESGGGLVQPGGSLRLSCAASGFTFTDYTMDWVRQAPGKGLEWVADVNPNSGGSILNVRFKGRFTLSVDRSKNTLYLQMNSLRAEDTAVYYCARNLGPWFYFDYWGQGTLVTVSS VL: DIQMTQSPSSLSASVGDRVTITCRASQDVSTAVAWYQQKPGKAPKLLIYSASYRYTGVPSRFSGSRSGTDFTLTISSLQPEDFATYYCQQHYTTPPTFGQGTKVEIKR | 2.68 | 0.000155 | 58000 | 
16 | KJ015-C (bispecific antibody) VH 1: EVQLVESGGGLVQPGGSLRLSCAASGFTFTDYTMDWVRQAPGKGLEWVADVNPNSGGSIYNQRFKGRFTLSVDRSKNTLYLQMNSLRAEDTAVYYCARNLGPWFYFDYWGQGTLVTVSS VH 2: not shown light: not shown |  |  |  | Maximum inhibition rate of cell proliferation (%), BT474 [2]: 84.8%; Maximum inhibition rate of cell proliferation (%), Calu-3 [2]: 82%; Maximum inhibition rate of cell proliferation (%), MDA-MB-175 [2]: 81.5%; Maximum inhibition rate of cell proliferation (%), NCI-N87 [2]: 82.5%; Maximum inhibition rate of cell proliferation (%), SK-BR-3 [2]: 58.2%
17 | Single-target anti-HER2 IgG: light chain M1 + heavy chain No. 10 (Table 5) (antibody, V domains shown, IgG; Heavy chain positions derived) VH: EVQLVESGGGLVQPGGSLRLSCAASGFTFTDYTMDWVRQAPGKGLEWVADVNPNSGGSIMNQRFKGRFTLSVDRSKNTLYLQMNSLRAEDTAVYYCARNLGPFFYFDYWGQGTLVTVSS VL: not shown | 6.58 | 0.000447 | 67900 | 
18 | Single-target anti-HER2 IgG: light chain M1 + heavy chain No. 14 (Table 5) (antibody, V domains shown, IgG; Heavy chain positions derived) VH: EVQLVESGGGLVQPGGSLRLSCAASGFTFTDYTMDWVRQAPGKGLEWVADVNPNSGGSILNRRFKGRFTLSVDRSKNTLYLQMNSLRAEDTAVYYCARNLGPYFYFDYWGQGTLVTVSS VL: not shown | 9.38 | 0.000607 | 64700 | 
19 | Single-target anti-HER2 IgG: light chain M1 + heavy chain No. 13 (Table 5) (antibody, V domains shown, IgG; Heavy chain positions derived) VH: EVQLVESGGGLVQPGGSLRLSCAASGFTFTDYTMDWVRQAPGKGLEWVADVNPNSGGSILNRRFKGRFTLSVDRSKNTLYLQMNSLRAEDTAVYYCARNLGPLFYFDYWGQGTLVTVSS VL: not shown | 8.98 | 0.000409 | 45500 | 
20 | Single-target anti-HER2 IgG: light chain M1 + heavy chain No. 4 (Table 5) (antibody, V domains shown, IgG; positions derived) VH: EVQLVESGGGLVQPGGSLRLSCAASGFTFTDYTMDWVRQAPGKGLEWVADVNPNSGGSIFNQRFKGRFTLSVDRSKNTLYLQMNSLRAEDTAVYYCARNLGPWFYFDYWGQGTLVTVSS VL: not shown | 3.05 | 0.000199 | 65100 | 
21 | Single-target anti-HER2 IgG: light chain M1 + heavy chain No. 1 (Table 5) (antibody, V domains shown, IgG) VH: EVQLVESGGGLVQPGGSLRLSCAASGFTFTDYTMDWVRQAPGKGLEWVADVNPNSGGSIYNQRFKGRFTLSVDRSKNTLYLQMNSLRAEDTAVYYCARNLGPWFYFDYWGQGTLVTVSS VL: not shown | 4.99 | 0.000312 | 62600 | 
22 | KJ015-B (bispecific antibody) VH 1: EVQLVESGGGLVQPGGSLRLSCAASGFTFTDYTMDWVRQAPGKGLEWVADVNPNSGGSILNRRFKGRFTLSVDRSKNTLYLQMNSLRAEDTAVYYCARNLGPNFYFDYWGQGTLVTVSS VH 2: not shown light: not shown |  |  |  | Maximum inhibition rate of cell proliferation (%), BT474 [2]: 84.1%; Maximum inhibition rate of cell proliferation (%), Calu-3 [2]: 84.6%; Maximum inhibition rate of cell proliferation (%), MDA-MB-175 [2]: 75.4%; Maximum inhibition rate of cell proliferation (%), NCI-N87 [2]: 79.2%; Maximum inhibition rate of cell proliferation (%), SK-BR-3 [2]: 57.8%
23 | Single-target anti-HER2 IgG: light chain M1 + heavy chain No. 12 (Table 5) (antibody, V domains shown, IgG; Heavy chain positions derived) VH: EVQLVESGGGLVQPGGSLRLSCAASGFTFTDYTMDWVRQAPGKGLEWVADVNPNSGGSILNRRFKGRFTLSVDRSKNTLYLQMNSLRAEDTAVYYCARNLGPFFYFDYWGQGTLVTVSS VL: not shown | 3.35 | 0.000253 | 75400 | 
